Reference: the RNAGym collection of RNA variant scans (doi:10.7554/elife.80360)

B1: HDV Ribozyme (parent)
chain: GGCCGGCAUGGUCCCAGCCUCCUCGCUGGCGCCGGCUGGGCAACAUUCCGAGGGGACCGUCCCCUCGGUAAUGGCGAAUGGGACCCA

Variants of: B1
Assay: self-cleavage, relative activity (ratio to wild type); higher = more cleavage; co-transcriptional

In order of rising self-cleavage:
1. GGCCGGCAUGGUCCCAGCCUCCUCGCUGGCGCCGGCUGGGCAACAUUCCGAGGGGACCGUCCCCUCUGUAAUGGAGAAUGGGACCCA  0.0426
2. GGCCGGCAUGGUCCCAGCCUCCUCGCUGGCGCCGGCUGGGCAACAUUCCGAGGGGACCGUCCCCUCGAUAAUGGCGACUGGGACCCA  0.0733
3. GGCCGGCAUGGUCCCAGCCUCCUCGCUGGCGCCGGCUGGGCAACAUUCCGAGGGGACCGUCCCCUCGAUAAUGGGGAAUGGGACCCA  0.0875
4. GGCCGGCAUGGUCCCAGCCUCCUCGCUGGCGCCGGCUGGGCAACAUUCCGAGGGGACCGUCCCCUCGGAAAUGGAGAAUGGGACCCA  0.119
5. GGCCGGCAUGGUCCCAGCCUCCUCGCUGGCGCCGGCUGGGCAACAUUCCGAGGGGACCGUCCCCUCGCUAAUGGCGAAUGUGACCCA  0.123
6. GGCCGGCAUGGUCCCAGCCUCCUCGCUGGCGCCGGCUGGGCAACAUUCCGAGGGGACCGUCCCCUCGAUAAUGGCGAAUGUGACCCA  0.124
7. GGCCGGCAUGGUCCCAGCCUCCUCGCUGGCGCCGGCUGGGCAACAUUCCGAGGGGACCGUCCCCUCGGAAAUGGGGAAUGGGACCCA  0.138
8. GGCCGGCAUGGUCCCAGCCUCCUCGCUGGCGCCGGCUGGGCAACAUUCCGAGGGGACCGUCCCCUCUGUAAUGGCGAAUGUGACCCA  0.155
9. GGCCGGCAUGGUCCCAGCCUCCUCGCUGGCGCCGGCUGGGCAACAUUCCGAGGGGACCGUCCCCUCGCUAAUGGCGCAUGGGACCCA  0.185
10. GGCCGGCAUGGUCCCAGCCUCCUCGCUGGCGCCGGCUGGGCAACAUUCCGAGGGGACCGUCCCCUCGGAAAUGGCGCAUGGGACCCA  0.199
11. GGCCGGCAUGGUCCCAGCCUCCUCGCUGGCGCCGGCUGGGCAACAUUCCGAGGGGACCGUCCCCUCGUUAAUGGCGAAUGGCACCCA  0.215
12. GGCCGGCAUGGUCCCAGCCUCCUCGCUGGCGCCGGCUGGGCAACAUUCCGAGGGGACCGUCCCCUCGUUAAUGGCGAAUGCGACCCA  0.223
13. GGCCGGCAUGGUCCCAGCCUCCUCGCUGGCGCCGGCUGGGCAACAUUCCGAGGGGACCGUCCCCUCGCUAAUGGCGACUGGGACCCA  0.237
14. GGCCGGCAUGGUCCCAGCCUCCUCGCUGGCGCCGGCUGGGCAACAUUCCGAGGGGACCGUCCCCUCGUUAACGGCGAAUGGGACCCA  0.237
15. GGCCGGCAUGGUCCCAGCCUCCUCGCUGGCGCCGGCUGGGCAACAUUCCGAGGGGACCGUCCCCUCGAUAAUUGCGAAUGGGACCCA  0.251
16. GGCCGGCAUGGUCCCAGCCUCCUCGCUGGCGCCGGCUGGGCAACAUUCCGAGGGGACCGUCCCCUCGUUAAUGGCGAAUCGGACCCA  0.253
17. GGCCGGCAUGGUCCCAGCCUCCUCGCUGGCGCCGGCUGGGCAACAUUCCGAGGGGACCGUCCCCUCGAUAAUCGCGAAUGGGACCCA  0.257
18. GGCCGGCAUGGUCCCAGCCUCCUCGCUGGCGCCGGCUGGGCAACAUUCCGAGGGGACCGUCCCCUCGCUAAUGGUGAAUGGGACCCA  0.272
19. GGCCGGCAUGGUCCCAGCCUCCUCGCUGGCGCCGGCUGGGCAACAUUCCGAGGGGACCGUCCCCUCGAUAAUGGCGAUUGGGACCCA  0.277
20. GGCCGGCAUGGUCCCAGCCUCCUCGCUGGCGCCGGCUGGGCAACAUUCCGAGGGGACCGUCCCCUCGAUAAUGGCGAAUGGAACCCA  0.287
21. GGCCGGCAUGGUCCCAGCCUCCUCGCUGGCGCCGGCUGGGCAACAUUCCGAGGGGACCGUCCCCUCGCUAAUGGCGAAUGGGCCCCA  0.332
22. GGCCGGCAUGGUCCCAGCCUCCUCGCUGGCGCCGGCUGGGCAACAUUCCGAGGGGACCGUCCCCUCGCUAAGGGCGAAUGGGACCCA  0.356
23. GGCCGGCAUGGUCCCAGCCUCCUCGCUGGCGCCGGCUGGGCAACAUUCCGAGGGGACCGUCCCCUCGUUAAUGGCGAAGGGGACCCA  0.374
24. GGCCGGCAUGGUCCCAGCCUCCUCGCUGGCGCCGGCUGGGCAACAUUCCGAGGGGACCGUCCCCUCGCUAAUGUCGAAUGGGACCCA  0.394
25. GGCCGGCAUGGUCCCAGCCUCCUCGCUGGCGCCGGCUGGGCAACAUUCCGAGGGGACCGUCCCCUCGAUAAAGGCGAAUGGGACCCA  0.396
26. GGCCGGCAUGGUCCCAGCCUCCUCGCUGGCGCCGGCUGGGCAACAUUCCGAGGGGACCGUCCCCUCGUUAAUGGCGAAUGGGGCCCA  0.407
27. GGCCGGCAUGGUCCCAGCCUCCUCGCUGGCGCCGGCUGGGCAACAUUCCGAGGGGACCGUCCCCUCUGUAAUGGCGAAUGGGGCCCA  0.412
28. GGCCGGCAUGGUCCCAGCCUCCUCGCUGGCGCCGGCUGGGCAACAUUCCGAGGGGACCGUCCCCUCGCUAAUGGCGAAUAGGACCCA  0.421
29. GGCCGGCAUGGUCCCAGCCUCCUCGCUGGCGCCGGCUGGGCAACAUUCCGAGGGGACCGUCCCCUCGGAAAUGGCGAAUGGGUCCCA  0.427
30. GGCCGGCAUGGUCCCAGCCUCCUCGCUGGCGCCGGCUGGGCAACAUUCCGAGGGGACCGUCCCCUCUGUAAUCGCGAAUGGGACCCA  0.437
31. GGCCGGCAUGGUCCCAGCCUCCUCGCUGGCGCCGGCUGGGCAACAUUCCGAGGGGACCGUCCCCUCUGUAAUGUCGAAUGGGACCCA  0.453
32. GGCCGGCAUGGUCCCAGCCUCCUCGCUGGCGCCGGCUGGGCAACAUUCCGAGGGGACCGUCCCCUCGAUAAUAGCGAAUGGGACCCA  0.463
33. GGCCGGCAUGGUCCCAGCCUCCUCGCUGGCGCCGGCUGGGCAACAUUCCGAGGGGACCGUCCCCUCGAUAAUGGCGAAUGGGAGCCA  0.475
34. GGCCGGCAUGGUCCCAGCCUCCUCGCUGGCGCCGGCUGGGCAACAUUCCGAGGGGACCGUCCCCUCGGAAAUGGCGAAUGGGCCCCA  0.499
35. GGCCGGCAUGGUCCCAGCCUCCUCGCUGGCGCCGGCUGGGCAACAUUCCGAGGGGACCGUCCCCUCGUUAAUGGCGAAUGGGAUCCA  0.511
36. GGCCGGCAUGGUCCCAGCCUCCUCGCUGGCGCCGGCUGGGCAACAUUCCGAGGGGACCGUCCCCUCUGUAACGGCGAAUGGGACCCA  0.53
37. GGCCGGCAUGGUCCCAGCCUCCUCGCUGGCGCCGGCUGGGCAACAUUCCGAGGGGACCGUCCCCUCGCUACUGGCGAAUGGGACCCA  0.554
38. GGCCGGCAUGGUCCCAGCCUCCUCGCUGGCGCCGGCUGGGCAACAUUCCGAGGGGACCGUCCCCUCGGAAAUGGCGAAUGGGAGCCA  0.578
39. GGCCGGCAUGGUCCCAGCCUCCUCGCUGGCGCCGGCUGGGCAACAUUCCGAGGGGACCGUCCCCUCGAUAAUGGCGAAGGGGACCCA  0.584
40. GGCCGGCAUGGUCCCAGCCUCCUCGCUGGCGCCGGCUGGGCAACAUUCCGAGGGGACCGUCCCCUCGUUAAUGGCGAAUGGGUCCCA  0.629
41. GGCCGGCAUGGUCCCAGCCUCCUCGCUGGCGCCGGCUGGGCAACAUUCCGAGGGGACCGUCCCCUCGCUAAUGGCGAAAGGGACCCA  0.705
42. GGCCGGCAUGGUCCCAGCCUCCUCGCUGGCGCCGGCUGGGCAACAUUCCGAGGGGACCGUCCCCUCGGACAUGGCGAAUGGGACCCA  0.745
43. GGCCGGCAUGGUCCCAGCCUCCUCGCUGGCGCCGGCUGGGCAACAUUCCGAGGGGACCGUCCCCUCGACAAUGGCGAAUGGGACCCA  0.782
44. GGCCGGCAUGGUCCCAGCCUCCUCGCUGGCGCCGGCUGGGCAACAUUCCGAGGGGACCGUCCCCUCUGUAAUGGCGAGUGGGACCCA  0.791
45. GGCCGGCAUGGUCCCAGCCUCCUCGCUGGCGCCGGCUGGGCAACAUUCCGAGGGGACCGUCCCCUCGCUAAUGGCGAAUGGGAUCCA  0.796
46. GGCCGGCAUGGUCCCAGCCUCCUCGCUGGCGCCGGCUGGGCAACAUUCCGAGGGGACCGUCCCCUCGUUAAUGGCGAAUGGGAACCA  0.816
47. GGCCGGCAUGGUCCCAGCCUCCUCGCUGGCGCCGGCUGGGCAACAUUCCGAGGGGACCGUCCCCUCUGUAAUGGCGAAUGGGACACA  0.831
48. GGCCGGCAUGGUCCCAGCCUCCUCGCUGGCGCCGGCUGGGCAACAUUCCGAGGGGACCGUCCCCUCUGUAAUGGCGAAUGGGACGCA  0.831
49. GGCCGGCAUGGUCCCAGCCUCCUCGCUGGCGCCGGCUGGGCAACAUUCCGAGGGGACCGUCCCCUCGAUAAUGGCGAAUGGGAUCCA  0.872
50. GGCCGGCAUGGUCCCAGCCUCCUCGCUGGCGCCGGCUGGGCAACAUUCCGAGGGGACCGUCCCCUCGAUAAUGGCCAAUGGGACCCA  0.88
51. GGCCGGCAUGGUCCCAGCCUCCUCGCUGGCGCCGGCUGGGCAACAUUCCGAGGGGACCGUCCCCUCGCUAAUGGCGAAUGGGACUCA  0.892
52. GGCCGGCAUGGUCCCAGCCUCCUCGCUGGCGCCGGCUGGGCAACAUUCCGAGGGGACCGUCCCCUCGGAAAUGGCGAAUGGGACCCU  0.913
53. GGCCGGCAUGGUCCCAGCCUCCUCGCUGGCGCCGGCUGGGCAACAUUCCGAGGGGACCGUCCCCUCUGUAAUGGCGAAUGGGACCCC  0.925
54. GGCCGGCAUGGUCCCAGCCUCCUCGCUGGCGCCGGCUGGGCAACAUUCCGAGGGGACCGUCCCCUCGUUAAUGGCGAAAGGGACCCA  0.928
55. GGCCGGCAUGGUCCCAGCCUCCUCGCUGGCGCCGGCUGGGCAACAUUCCGAGGGGACCGUCCCCUCGUUAAUGGCGAAUGGGACCGA  0.945
56. GGCCGGCAUGGUCCCAGCCUCCUCGCUGGCGCCGGCUGGGCAACAUUCCGAGGGGACCGUCCCCUCGUUGAUGGCGAAUGGGACCCA  0.95
57. GGCCGGCAUGGUCCCAGCCUCCUCGCUGGCGCCGGCUGGGCAACAUUCCGAGGGGACCGUCCCCUCGAUAAUGGCGAAUGGGACUCA  0.95
58. GGCCGGCAUGGUCCCAGCCUCCUCGCUGGCGCCGGCUGGGCAACAUUCCGAGGGGACCGUCCCCUCGGAAAUGGCGAAUGGGACCCA  0.977
59. GGCCGGCAUGGUCCCAGCCUCCUCGCUGGCGCCGGCUGGGCAACAUUCCGAGGGGACCGUCCCCUCGUUAAUGGCGAAUGGGACCCC  1.01
60. GGCCGGCAUGGUCCCAGCCUCCUCGCUGGCGCCGGCUGGGCAACAUUCCGAGGGGACCGUCCCCUCGCUAAUGGCAAAUGGGACCCA  1.04
61. GGCCGGCAUGGUCCCAGCCUCCUCGCUGGCGCCGGCUGGGCAACAUUCCGAGGGGACCGUCCCCUCGAUAAUGGCGAAUGGGACCGA  1.07
62. GGCCGGCAUGGUCCCAGCCUCCUCGCUGGCGCCGGCUGGGCAACAUUCCGAGGGGACCGUCCCCUCGUUAAUGGCGAAUGGGACGCA  1.07
63. GGCCGGCAUGGUCCCAGCCUCCUCGCUGGCGCCGGCUGGGCAACAUUCCGAGGGGACCGUCCCCUCGUUAAUGGCUAAUGGGACCCA  1.09
64. GGCCGGCAUGGUCCCAGCCUCCUCGCUGGCGCCGGCUGGGCAACAUUCCGAGGGGACCGUCCCCUCGAUAAUGGCUAAUGGGACCCA  1.14
